Source: US20260184773A1, “THERAPEUTIC SINGLE DOMAIN ANTIBODY” (priority 2021, published 2026)

What was measured:
PANC-1 tumors = settings: PANC-1 xenograft, intraperitoneal for 14 days
[1] = system: tSTAT3, pSTAT3 and PD-L1 in MDA-MB-231 cells; assay: Immunoblot (slot blot) of tSTAT3, pSTAT3 and PD-L1; type: cell-based, human; settings: MDA-MB-231, 3, 6 and 24 hours, β-actin normalized, 50-100 ug/ml
ENBOV (Ebola) in HFF = type: cell-based, Ebola virus
ENBOV (Ebola) in HeLa = type: cell-based, Ebola virus
Zika in Vero = type: cell-based, Zika virus
MDA-MB-231 cells = assay: Cell penetration by immunofluorescence/confocal microscopy; type: cell-based, human
HIV-1 RT = HIV-1 RT (Human immunodeficiency virus type 1 group M subtype B, UniProt P04585); settings: read-out: Binding affinity (KD)

Molecule: Nc1ccn([C@@H]2O[C@H](CO)[C@@H](O)C2(F)F)c(=O)n1 [Gemcitabine, gemcitabine, reference compound]
- % Inhibition of Control, Day 12 (PANC-1 tumors; Day 12): 19.51%
- % Inhibition of Control, Day 15 (PANC-1 tumors; Day 15): 23.17%
- % Inhibition of Control, Day 19 (PANC-1 tumors; Day 19): 23.26%
- % Inhibition of Control, Day 22 (PANC-1 tumors; Day 22 (end of the study)): 14.93%

Molecule: Cc1ccc(S(=O)(=O)OCC(=O)Nc2ccc(C(=O)O)c(O)c2)cc1 [S3I-201, reference compound]
- Levels of tSTAT3, pSTAT3 and PD-L1 [1]: decreased

B1: SBT-106 (protein)
VHH: EVQLVESGGGSVQAGGSLRLSCAASVYSYNTNCMGWFRQAPGKEREGVAVIYAAGGLTYYADSVKGRFTISQENGKNTVYLTMNRLKPEDTAMYYCAAKRWCSSWNRGEEYNYWGQGTQVTVSS
- Comment (ENBOV (Ebola) in HFF): Does not inhibit Ebola virus
- EC50 [μM] (ENBOV (Ebola) in HFF): No
- EC50 (ENBOV (Ebola) in HeLa): 3.49 µM
- EC50 [μM] (Zika in Vero): No

B2: SBT-107: anti-HIV-1 Reverse Transcriptase (RT) VHH, SEQ ID NO. 4 (protein)
VHH: MGDVQLVESGGDSVRAGGSLQLSCKASGYTYNSRVDIRSMGWFRQYPGKEREGVATINIRNSVTYYADSVKGRFTISQDNAKNTVYLQMNALKPEDTAMYYCALSDRFAAQVPARYGIRPSDYNYWGEGTLVTVSSSSGLE
modifications: Camelid
- Intracellular staining/localization of VHH (MDA-MB-231 cells): no intracellular staining
- Kd (HIV-1 RT): 0.00385 µM
